B1: Partner and localizer of BRCA2 (Homo sapiens), Q86YC2 (parent)
chain: MDEPPGKPLSCEEKEKLKEKLAFLKREYSKTLARLQRAQRAEKIKHSIKKTVEEQDCLSQQDLSPQLKHSEPKNKICVYDKLHIKTHLDEETGEKTSITLDVGPESFNPGDGPGGLPIQRTDDTQEHFPHRVSDPSGEQKQKLPSRRKKQQKRTFISQERDCVFGTDSLRLSGKRLKEQEEISSKNPARSPVTEIRTHLLSLKSELPDSPEPVTEINEDSVLIPPTAQPEKGVDTFLRRPNFTRATTVPLQTLSDSGSSQHLEHIPPKGSSELTTHDLKNIRFTSPVSLEAQGKKMTVSTDNLLVNKAISKSGQLPTSSNLEANISCSLNELTYNNLPANENQNLKEQNQTEKSLKSPSDTLDGRNENLQESEILSQPKSLSLEATSPLSAEKHSCTVPEGLLFPAEYYVRTTRSMSNCQRKVAVEAVIQSHLDVKKKGFKNKNKDASKNLNLSNEETDQSEIRMSGTCTGQPSSRTSQKLLSLTKVSSPAGPTEDNDLSRKAVAQAPGRRYTGKRKSACTPASDHCEPLLPTSSLSIVNRSKEEVTSHKYQHEKLFIQVKGKKSRHQKEDSLSWSNSAYLSLDDDAFTAPFHRDGMLSLKQLLSFLSITDFQLPDEDFGPLKLEKVKSCSEKPVEPFESKMFGERHLKEGSCIFPEELSPKRMDTEMEDLEEDLIVLPGKSHPKRPNSQSQHTKTGLSSSILLYTPLNTVAPDDNDRPTTDMCSPAFPILGTTPAFGPQGSYEKASTEVAGRTCCTPQLAHLKDSVCLASDTKQFDSSGSPAKPHTTLQVSGRQGQPTCDCDSVPPGTPPPIESFTFKENQLCRNTCQELHKHSVEQTETAELPASDSINPGNLQLVSELKNPSGSCSVDVSAMFWERAGCKEPCIITACEDVVSLWKALDAWQWEKLYTWHFAEVPVLQIVPVPDVYNLVCVALGNLEIREIRALFCSSDDESEKQVLLKSGNIKAVLGLTKRRLVSSSGTLSDQQVEVMTFAEDGGGKENQFLMPPEETILTFAEVQGMQEALLGTTIMNNIVIWNLKTGQLLKKMHIDDSYQASVCHKAYSEMGLLFIVLSHPCAKESESLRSPVFQLIVINPKTTLSVGVMLYCLPPGQAGRFLEGDVKDHCAAAILTSGTIAIWDLLLGQCTALLPPVSDQHWSFVKWSGTDSHLLAGQKDGNIFVYHYS

This assay covers variants of B1. The following applies: with brca1_human BRCA1, P38398.
brca1_human BRCA1, P38398, sequence (P38398 whole entry, looked up): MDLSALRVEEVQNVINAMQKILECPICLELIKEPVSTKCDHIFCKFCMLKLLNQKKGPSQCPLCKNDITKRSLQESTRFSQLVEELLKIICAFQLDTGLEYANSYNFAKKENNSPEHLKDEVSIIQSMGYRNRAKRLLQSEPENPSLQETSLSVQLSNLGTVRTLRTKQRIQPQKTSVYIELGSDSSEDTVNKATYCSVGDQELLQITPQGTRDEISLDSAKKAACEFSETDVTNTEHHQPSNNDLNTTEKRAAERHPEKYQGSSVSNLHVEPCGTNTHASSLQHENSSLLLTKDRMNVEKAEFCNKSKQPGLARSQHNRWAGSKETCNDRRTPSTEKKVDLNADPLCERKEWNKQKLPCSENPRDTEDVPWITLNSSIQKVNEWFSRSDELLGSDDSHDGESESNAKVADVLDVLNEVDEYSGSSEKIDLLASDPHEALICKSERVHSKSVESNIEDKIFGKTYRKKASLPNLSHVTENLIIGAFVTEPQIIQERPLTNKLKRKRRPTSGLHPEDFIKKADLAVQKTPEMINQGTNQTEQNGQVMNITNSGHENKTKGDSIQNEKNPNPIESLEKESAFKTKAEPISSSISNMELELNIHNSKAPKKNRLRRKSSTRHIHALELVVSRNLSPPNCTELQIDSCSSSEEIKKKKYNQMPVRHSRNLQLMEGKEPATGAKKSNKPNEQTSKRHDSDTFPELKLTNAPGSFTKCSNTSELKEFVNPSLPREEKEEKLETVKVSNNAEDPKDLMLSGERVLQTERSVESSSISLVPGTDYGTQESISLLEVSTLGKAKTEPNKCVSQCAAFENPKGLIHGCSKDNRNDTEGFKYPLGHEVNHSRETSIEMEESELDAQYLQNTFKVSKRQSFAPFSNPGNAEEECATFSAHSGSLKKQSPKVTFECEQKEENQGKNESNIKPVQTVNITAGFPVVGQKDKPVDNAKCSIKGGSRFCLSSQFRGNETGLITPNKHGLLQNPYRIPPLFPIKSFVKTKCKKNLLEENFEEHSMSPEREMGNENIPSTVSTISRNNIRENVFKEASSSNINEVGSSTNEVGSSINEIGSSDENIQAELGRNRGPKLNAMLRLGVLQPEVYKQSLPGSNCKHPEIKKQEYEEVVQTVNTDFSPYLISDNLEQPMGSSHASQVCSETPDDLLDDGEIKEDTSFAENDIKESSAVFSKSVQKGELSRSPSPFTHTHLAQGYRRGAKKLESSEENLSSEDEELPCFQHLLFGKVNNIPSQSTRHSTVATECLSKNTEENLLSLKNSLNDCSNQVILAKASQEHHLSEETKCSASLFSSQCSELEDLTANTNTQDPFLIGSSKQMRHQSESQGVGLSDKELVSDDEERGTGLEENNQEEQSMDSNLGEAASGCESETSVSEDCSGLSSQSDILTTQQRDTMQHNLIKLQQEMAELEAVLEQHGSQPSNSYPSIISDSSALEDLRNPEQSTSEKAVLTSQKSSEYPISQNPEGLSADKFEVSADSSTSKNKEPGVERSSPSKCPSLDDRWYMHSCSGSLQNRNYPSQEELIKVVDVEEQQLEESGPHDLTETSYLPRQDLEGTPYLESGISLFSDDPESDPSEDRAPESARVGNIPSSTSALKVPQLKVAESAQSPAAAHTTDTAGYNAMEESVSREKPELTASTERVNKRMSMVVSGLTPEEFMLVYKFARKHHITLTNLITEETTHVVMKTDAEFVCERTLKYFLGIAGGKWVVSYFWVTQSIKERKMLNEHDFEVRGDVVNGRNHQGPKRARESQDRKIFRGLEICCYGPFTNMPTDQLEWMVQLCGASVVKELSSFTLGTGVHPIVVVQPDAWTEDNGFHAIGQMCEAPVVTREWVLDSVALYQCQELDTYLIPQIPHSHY
For L21A, the “effect of a mutation on the interaction” value was “disrupting interaction”.
Y28A: the “effect of a mutation on the interaction” value is “disrupting interaction”.

Source of the values: IntAct's records for PubMed 19369211.
